In paper PMC12343898:

Assays:
OsLHY [1] = target: T1, OsLHY (Oryza sativa, UniProt A0A0P0XBU0 1-719); test: EMSA
OsLHY [2] = target: T1, OsLHY; test: competition
OsNAC15 = target: T2, OsNAC15 (Oryza sativa, UniProt K9LKF1 1-301); test: EMSA
T2 sequence: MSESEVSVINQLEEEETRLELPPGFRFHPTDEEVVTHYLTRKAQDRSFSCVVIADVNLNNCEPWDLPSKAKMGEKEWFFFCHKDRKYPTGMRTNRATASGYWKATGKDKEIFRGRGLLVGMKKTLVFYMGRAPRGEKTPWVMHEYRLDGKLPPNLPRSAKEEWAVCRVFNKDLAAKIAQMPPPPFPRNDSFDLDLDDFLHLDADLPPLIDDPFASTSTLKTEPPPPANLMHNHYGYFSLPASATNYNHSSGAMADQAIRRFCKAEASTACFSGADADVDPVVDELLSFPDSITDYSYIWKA

OsLHY [3] = target: T1, OsLHY; test: competition; remark: listed apart in the source

T1 sequence (A0A0P0XBU0 whole entry): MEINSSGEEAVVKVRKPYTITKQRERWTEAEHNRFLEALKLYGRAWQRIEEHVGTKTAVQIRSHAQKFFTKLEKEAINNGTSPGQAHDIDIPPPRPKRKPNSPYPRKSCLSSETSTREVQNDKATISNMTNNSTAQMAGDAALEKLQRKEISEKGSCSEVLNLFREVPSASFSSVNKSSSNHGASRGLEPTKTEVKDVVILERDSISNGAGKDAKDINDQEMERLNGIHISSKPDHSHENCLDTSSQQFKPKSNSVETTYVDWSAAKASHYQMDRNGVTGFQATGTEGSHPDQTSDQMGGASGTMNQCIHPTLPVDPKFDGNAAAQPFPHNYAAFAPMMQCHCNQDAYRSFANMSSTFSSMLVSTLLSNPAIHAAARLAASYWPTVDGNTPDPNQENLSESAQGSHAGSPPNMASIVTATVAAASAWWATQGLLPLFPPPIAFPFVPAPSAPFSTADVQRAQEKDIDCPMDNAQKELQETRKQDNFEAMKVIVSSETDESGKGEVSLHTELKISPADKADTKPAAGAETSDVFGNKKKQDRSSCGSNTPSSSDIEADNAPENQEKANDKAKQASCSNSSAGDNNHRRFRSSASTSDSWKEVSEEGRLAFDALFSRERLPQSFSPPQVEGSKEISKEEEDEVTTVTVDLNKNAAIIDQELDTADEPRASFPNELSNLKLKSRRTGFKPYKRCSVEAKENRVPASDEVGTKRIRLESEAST

B1: OsLHY Bio-probe, 3x AAGATATTT (dsDNA)
DNA 1: AAGATATTTAAGATATTTAAGATATTT
DNA 2: AAATATCTTAAATATCTTAAATATCTT
binding result (OsLHY [1]): binds

B2: OsLHY Cold probe, 3x AAGATATTT (dsDNA)
DNA 1: AAGATATTTAAGATATTTAAGATATTT
DNA 2: AAATATCTTAAATATCTTAAATATCTT
binding result (OsLHY [2]): binds

B3: OsNAC15 Bio-probe, 3x AGCAAGA (dsDNA)
DNA 1: AGCAAGAAGCAAGAAGCAAGA
DNA 2: TCTTGCTTCTTGCTTCTTGCT
binding result (OsNAC15): binds

B4: OsLHY mCold probe, 3x AAGGCGCCC (dsDNA)
DNA 1: AAGGCGCCCAAGGCGCCCAAGGCGCCC
DNA 2: GGGCGCCTTGGGCGCCTTGGGCGCCTT
binding result (OsLHY [3]): no binding
